Laboratory results: patent US20150344570A1 (published 2015)

B1: H240-Kn061/H240-Hl071/L73-k0 variant with V240H in H240-Hl071 (antibody, human IgG1, kappa)
heavy 1: QDQLVQSGAEVKKPGASVKVSCKASGFNIKDTYIQWVRQAPGQGLEWMGRIDPLRKQTKYREKFEGRVTITADTSTNTAYMELSSLRSEDTAVYYCVRSGREFDYWGQGTLVTVSSASTKGPSVFPLAPSSKSTSGGTAALGCLVKDYFPEPVTVSWNSGALTSGVHTFPAVLQSSGLYSLSSVVTVPSSSLGTQTYICNVNHKPSNTKVDKKVEPKSCDKTHTCPPCPAPEYYWGPSVFLFPPKPKDTLMISRTPEVTCVVVDVSDEDPEVKFNWYVDGVEVHNAKTKPREEQYNATYRVVSVLTVLHQDWLNGKEYKCKVSNKALPAPIEKTISKAKGQPREPQVCTLPPSRDELTKNQVSLWCLVKGFYPSDIAVEWESNGQPENNYKTTPPVLDSDGSFFLYSKLTVDKSRWQQGNVFSCSVMHEALHNHYTQKSLSLSP
heavy 2: QDQLVQSGAEVKKPGASVKVSCKASGFNIKDTYIQWVRQAPGQGLEWMGRIDPLRKQTKYREKFEGRVTITADTSTNTAYMELSSLRSEDTAVYYCVRSGREFDYWGQGTLVTVSSASTKGPSVFPLAPSSKSTSGGTAALGCLVKDYFPEPVTVSWNSGALTSGVHTFPAVLQSSGLYSLSSVVTVPSSSLGTQTYICNVNHKPSNTKVDKKVEPKSCDKTHTCPPCPAPELLGGPSHFLFPPKPKDTLMISRTPEVTCVVVDVSHEDPEVKFNWYVDGVEVHNAKTKPREEQYNSTYRVVSVLTVLHQDWLNGKEYKCKVSNDALPMPIEETISKAKGQPREPQVYTLPPSRCELTKNQVSLSCAVKGFYPSDIAVEWESNGQPENNYKTTPPVLDSDGSFFLVSKLTVDKSRWQQGNVFSCSVMHEALHNHYTQKSLSLSP
light: DIQMTQSPSSLSASVGDRVTITCRASQDIHKYIAWYQQKPGQAPRLLIQYTSTLQPGVPSRFSGSGSGTDYTFTISSLQPEDIATYYCLQYEQLRTFGGGTKVEIKRTVAAPSVFIFPPSDEQLKSGTASVVCLLNNFYPREAKVQWKVDNALQSGNSQESVTEQDSKDSTYSLSSTLTLSKADYEKHKVYACEVTHQGLSSPVTKSFNRGEC
notes: anti-epiregulin heterodimerized IgG1; also called H240-Hl071 V240H
B2: H240-Kn061/H240-Hl071/L73-k0 variant with Y234I in H240-Kn061 (antibody, human IgG1, kappa)
heavy 1: QDQLVQSGAEVKKPGASVKVSCKASGFNIKDTYIQWVRQAPGQGLEWMGRIDPLRKQTKYREKFEGRVTITADTSTNTAYMELSSLRSEDTAVYYCVRSGREFDYWGQGTLVTVSSASTKGPSVFPLAPSSKSTSGGTAALGCLVKDYFPEPVTVSWNSGALTSGVHTFPAVLQSSGLYSLSSVVTVPSSSLGTQTYICNVNHKPSNTKVDKKVEPKSCDKTHTCPPCPAPEIYWGPSVFLFPPKPKDTLMISRTPEVTCVVVDVSDEDPEVKFNWYVDGVEVHNAKTKPREEQYNATYRVVSVLTVLHQDWLNGKEYKCKVSNKALPAPIEKTISKAKGQPREPQVCTLPPSRDELTKNQVSLWCLVKGFYPSDIAVEWESNGQPENNYKTTPPVLDSDGSFFLYSKLTVDKSRWQQGNVFSCSVMHEALHNHYTQKSLSLSP
heavy 2: QDQLVQSGAEVKKPGASVKVSCKASGFNIKDTYIQWVRQAPGQGLEWMGRIDPLRKQTKYREKFEGRVTITADTSTNTAYMELSSLRSEDTAVYYCVRSGREFDYWGQGTLVTVSSASTKGPSVFPLAPSSKSTSGGTAALGCLVKDYFPEPVTVSWNSGALTSGVHTFPAVLQSSGLYSLSSVVTVPSSSLGTQTYICNVNHKPSNTKVDKKVEPKSCDKTHTCPPCPAPELLGGPSVFLFPPKPKDTLMISRTPEVTCVVVDVSHEDPEVKFNWYVDGVEVHNAKTKPREEQYNSTYRVVSVLTVLHQDWLNGKEYKCKVSNDALPMPIEETISKAKGQPREPQVYTLPPSRCELTKNQVSLSCAVKGFYPSDIAVEWESNGQPENNYKTTPPVLDSDGSFFLVSKLTVDKSRWQQGNVFSCSVMHEALHNHYTQKSLSLSP
light: DIQMTQSPSSLSASVGDRVTITCRASQDIHKYIAWYQQKPGQAPRLLIQYTSTLQPGVPSRFSGSGSGTDYTFTISSLQPEDIATYYCLQYEQLRTFGGGTKVEIKRTVAAPSVFIFPPSDEQLKSGTASVVCLLNNFYPREAKVQWKVDNALQSGNSQESVTEQDSKDSTYSLSSTLTLSKADYEKHKVYACEVTHQGLSSPVTKSFNRGEC
notes: anti-epiregulin heterodimerized IgG1; also called H240-Kn061 Y234I
B3: H240-Kn061/H240-Hl071/L73-k0 variant with Y234L in H240-Kn061 (antibody, human IgG1, kappa)
heavy 1: QDQLVQSGAEVKKPGASVKVSCKASGFNIKDTYIQWVRQAPGQGLEWMGRIDPLRKQTKYREKFEGRVTITADTSTNTAYMELSSLRSEDTAVYYCVRSGREFDYWGQGTLVTVSSASTKGPSVFPLAPSSKSTSGGTAALGCLVKDYFPEPVTVSWNSGALTSGVHTFPAVLQSSGLYSLSSVVTVPSSSLGTQTYICNVNHKPSNTKVDKKVEPKSCDKTHTCPPCPAPELYWGPSVFLFPPKPKDTLMISRTPEVTCVVVDVSDEDPEVKFNWYVDGVEVHNAKTKPREEQYNATYRVVSVLTVLHQDWLNGKEYKCKVSNKALPAPIEKTISKAKGQPREPQVCTLPPSRDELTKNQVSLWCLVKGFYPSDIAVEWESNGQPENNYKTTPPVLDSDGSFFLYSKLTVDKSRWQQGNVFSCSVMHEALHNHYTQKSLSLSP
heavy 2: QDQLVQSGAEVKKPGASVKVSCKASGFNIKDTYIQWVRQAPGQGLEWMGRIDPLRKQTKYREKFEGRVTITADTSTNTAYMELSSLRSEDTAVYYCVRSGREFDYWGQGTLVTVSSASTKGPSVFPLAPSSKSTSGGTAALGCLVKDYFPEPVTVSWNSGALTSGVHTFPAVLQSSGLYSLSSVVTVPSSSLGTQTYICNVNHKPSNTKVDKKVEPKSCDKTHTCPPCPAPELLGGPSVFLFPPKPKDTLMISRTPEVTCVVVDVSHEDPEVKFNWYVDGVEVHNAKTKPREEQYNSTYRVVSVLTVLHQDWLNGKEYKCKVSNDALPMPIEETISKAKGQPREPQVYTLPPSRCELTKNQVSLSCAVKGFYPSDIAVEWESNGQPENNYKTTPPVLDSDGSFFLVSKLTVDKSRWQQGNVFSCSVMHEALHNHYTQKSLSLSP
light: DIQMTQSPSSLSASVGDRVTITCRASQDIHKYIAWYQQKPGQAPRLLIQYTSTLQPGVPSRFSGSGSGTDYTFTISSLQPEDIATYYCLQYEQLRTFGGGTKVEIKRTVAAPSVFIFPPSDEQLKSGTASVVCLLNNFYPREAKVQWKVDNALQSGNSQESVTEQDSKDSTYSLSSTLTLSKADYEKHKVYACEVTHQGLSSPVTKSFNRGEC
notes: anti-epiregulin heterodimerized IgG1; also called H240-Kn061 Y234L

Assays:
Experiment in all cases: SPR (Biacore); KD of H240-Kn061/H240-Hl071/L73-k0 divided by KD of the variant
[1] = target: T1, FcgRIIa R (FcγRIIa type R) extracellular domain with C-terminal His tag (human, UniProt P12318 34-217)
T1 construct: extracellular domain; also called FcγRIIa R; not shown: His tag attached to the C terminus
T1 sequence (looked up): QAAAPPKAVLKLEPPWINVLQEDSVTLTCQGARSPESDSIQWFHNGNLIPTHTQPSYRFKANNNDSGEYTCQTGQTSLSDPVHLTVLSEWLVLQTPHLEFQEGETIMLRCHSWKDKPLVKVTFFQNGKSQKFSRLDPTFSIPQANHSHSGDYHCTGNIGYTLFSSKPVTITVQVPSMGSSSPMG
Procedure: (§1) The antibodies were assessed for the binding to each FcgR. […] The resultant value was defined as relative KD, and used as an assessment indicator.
(§2) Analysis of interaction between objective antibody and the FcγR was carried out using Biacore T100 (GE Healthcare), Biacore T200, Biacore A100, and Biacore 4000. HBS-EP+ (GE Healthcare) was used as the running buffer, and the measurement temperature was set to 25° C. Chips produced by immobilizing the antigen peptide by the amine coupling method to a Series S sensor Chip CM5 (GE Healthcare), chips produced by allowing preliminarily biotinylated antigen peptides to interact with and immobilize onto a Series S Sensor Chip SA (certified) (GE Healthcare), chips produced by immobilizing Protein L (ACTIGEN, BioVision) to Series S Sencor Chip CM5 (GE Healthcare), or chips produced by immobilizing Protein A/G (Thermo Scientific) to Series S Sencor Chip CM5 (GE Healthcare) were used. Antibodies of interest were captured onto these chips, and allowed to interact to each FcγR diluted with running buffer.

[2] = target: T2, FcgRIIa H (FcγRIIa type H) extracellular domain with C-terminal His tag (human, UniProt P12318 34-217)
T2 construct: extracellular domain; also called FcγRIIa H; not shown: His tag attached to the C terminus
T2 sequence (looked up): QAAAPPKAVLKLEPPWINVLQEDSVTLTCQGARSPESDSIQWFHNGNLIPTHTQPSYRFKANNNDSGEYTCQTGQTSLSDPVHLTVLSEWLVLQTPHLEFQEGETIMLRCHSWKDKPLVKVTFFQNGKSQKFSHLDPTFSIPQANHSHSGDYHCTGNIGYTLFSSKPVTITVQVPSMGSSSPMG
Procedure: as §1, §2

[3] = target: T3, FcgRIIb (FcγRIIb) extracellular domain with C-terminal His tag (human, UniProt P31994 43-217)
T3 construct: extracellular domain; not shown: His tag attached to the C terminus
T3 sequence (looked up): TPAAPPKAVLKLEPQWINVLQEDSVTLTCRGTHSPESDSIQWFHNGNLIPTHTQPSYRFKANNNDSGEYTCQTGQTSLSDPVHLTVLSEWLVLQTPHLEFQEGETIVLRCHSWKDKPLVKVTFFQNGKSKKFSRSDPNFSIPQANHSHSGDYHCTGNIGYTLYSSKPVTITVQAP
Procedure: as §1, §2

[4] = target: T4, FcgRIIIa F (FcγRIIIa type F) extracellular domain with C-terminal His tag (human, UniProt P08637 17-208)
T4 construct: extracellular domain; also called FcγRIIIa F; 3aF; not shown: His tag attached to the C terminus
Procedure: as §1, §2

[5] = target: T5, FcgRIIIa V (FcγRIIIa type V) extracellular domain with C-terminal His tag (human, UniProt P08637 17-208)
T5 construct: extracellular domain; also called FcγRIIIa V; not shown: His tag attached to the C terminus
Procedure: as §1, §2

T4 sequence (P08637 17-208): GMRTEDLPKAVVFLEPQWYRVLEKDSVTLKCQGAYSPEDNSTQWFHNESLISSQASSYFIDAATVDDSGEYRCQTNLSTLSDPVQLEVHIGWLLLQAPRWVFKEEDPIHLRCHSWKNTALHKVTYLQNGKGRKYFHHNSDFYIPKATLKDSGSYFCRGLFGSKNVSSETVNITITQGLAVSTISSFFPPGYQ
T5 sequence (P08637 17-208 F176V limits assumed): as the sequence (P08637 17-208) above, with F160V counted along it

Binder	relative KD [1] [ratio]	relative KD [2] [ratio]	relative KD [3] [ratio]	relative KD [4] [ratio]	relative KD [5] [ratio]
B1	0.7	0.8	0.3	1.3	1
B2	4.1	2.6	7.7	1.2	1.3
B3	2.2	1.5	3.5	1.1	1.2
